Measured values reported in US20200323888A1, “INHIBITORS” (VESTLANDETS INNOVASJONSSELSKAP AS, priority 2017, published 2020).
Each block holds one molecule with its values, some of them ahead of it.

How the values were obtained:
Naa80 [1] = biological target: T1, Naa80 (Homo sapiens, UniProt Q93015); assay: Naa80 substrate screening assay (peptide acetylation by purified Naa80); format: biochemical; conditions: Naa80 mediated acetylation of 24-mer peptide substrates
T1 construct: The PCR product containing the CDS was inserted into the TOPO TA vector; made in house; host or cells: E. coli BL21 Star (DE3)
T1 sequence (Q93015 1-308 isoform Q93015-2): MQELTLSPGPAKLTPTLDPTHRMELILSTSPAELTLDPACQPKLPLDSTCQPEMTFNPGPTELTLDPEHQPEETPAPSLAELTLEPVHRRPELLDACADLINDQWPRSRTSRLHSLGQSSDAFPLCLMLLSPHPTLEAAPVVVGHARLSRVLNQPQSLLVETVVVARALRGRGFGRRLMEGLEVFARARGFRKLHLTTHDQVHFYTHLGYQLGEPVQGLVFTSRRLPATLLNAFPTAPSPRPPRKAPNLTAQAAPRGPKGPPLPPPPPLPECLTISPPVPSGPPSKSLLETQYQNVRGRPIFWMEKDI
Source text: In order to investigate the in vitro activity of Naa80 further, an enzyme activity screening assay on purified Naa80 was undertaken using a broad substrate library (including amino acids, nucleosides, coenzymes, amines, saccharides, vitamins, antioxidants and peptides) modified from Kuhn et al. (Kuhn et al. (2013) “Broad-substrate screen as a tool to identify substrates for bacterial Gcn5-related N-acetyltransferases with unknown substrate specificity”. Protein Science 22(2):222-230). Among all of the potential substrates tested, only the peptides with N-terminal sequence of MDEL24 (SEQ ID NO: 45), DDDI24 (SEQ ID NO: 41) and EEEI24 (SEQ ID NO: 40) were acetylated, as shown in the following table:
The 24-mer substrate peptides differed in their 7 N-terminal amino acids while the 17 C-terminal residues (RWGRPVGRRRRPVRVYP, SEQ ID NO: 39) were kept constant: EEEI24 (EEEIAAL, SEQ ID NO: 40), DDDI24 (DDDIAAL, SEQ ID NO: 41), MDDD24 (MDDDIAA, SEQ ID NO: 42), SESS24 (SESSSKS, SEQ ID NO: 43), AVFA24 (AVFADLD, SEQ ID NO: 44), MDEL24 (MDELFPL, SEQ ID NO: 45), MELL24 (MELLSPP, SEQ ID NO: 46), MLGT24 (MLGTGPA, SEQ ID NO: 47), MTNK24 (MTNKSSL, SEQ ID NO: 48), MLGP24 (MLGPEGG, SEQ ID NO: 49), MAPL24 (MAPLDLD, SEQ ID NO: 50), MKKS24 (MKKSYSG, SEQ ID NO: 51).
Both MDEL (p65, SEQ ID NO: 8) and MDDD24 (unprocessed β-actin, SEQ ID NO: 42) represent cellular NatB substrates.

Naa80 [2] = biological target: T1, Naa80; assay: as above; format: biochemical; conditions: linear range of enzyme concentration
Naa80 [3] = biological target: T1, Naa80; assay: Nt-acetylation inhibitor assay for Naa80; format: biochemical; conditions: Naa80
Protocol: FIG. 10: (A) IC50 values for inhibitors measured in an Nt-acetylation inhibitor assay for Naa80. (B) Ki-values for CoA-Ac-DDDI-NH2 (SEQ ID NO: 6) for different human NATs measured in an Nt-acetylation inhibitor assay. All reactions were performed at least three times and in triplicate; errors bars represent standard deviation of each measurement.
The IC50 values for these compounds were tested as described in Foyn H, et al. (2013) “Design, Synthesis, and Kinetic Characterization of Protein N-Terminal Acetyltransferase Inhibitors”. ACS Chem Biol 8:1121-1127; and Foyn H, et al. (2017) “DTNB-Based quantification of in vitro enzymatic N-terminal acetyltransferase activity”, Methods Mol. Biol. 1574:9-15. Briefly, a colorimetric acetylation assay, 5,5′-dithiobis-(2-nitrobenzoic acid) (DTNB) assay was used to measure the catalytic activity of NATs after incubation with NAT inhibitors. In the DTNB assay, thiols present in the enzymatic product, CoA, cleaves DTNB and produces 2-nitro-5-thiobenzoate (NTB-), which absorbs light with a wavelength of 412 nm. NTB- forms in a 1:1 molar ratio to the thiol groups present in the sample. Therefore, NTB- was quantified by measuring the absorbance at 412 nm and indirectly measures peptide Nt-acetylation. […] After 30 min-60 min incubation at 37° C., the enzyme activity was quenched with quenching buffer (3.2 M guanidinium-HCl, 100 mM sodium phosphate dibasic pH 6.8). Triplicates were run for all positive samples, while negative controls were duplicated. As a negative control, reactions without enzyme were incubated at 37° C. before the reaction was quenched and added enzyme. In order to measure CoA production, 2 mM DTNB (dissolved in 100 mM sodium phosphate dibasic pH 6.8 and 10 mM EDTA) was added to the quenched reaction and the absorbance at 412 nm was measured with a spectrophotometer (Epoc). Background absorbance (determined in negative controls) was subtracted from the absorbance determined in each individual reaction. Thiophenolate production was quantified assuming ε=13.7×103 M−1 cm−1. For NatA and NatB enzyme complex inhibition, immunoprecipitation was performed using Naa15 ab (custom made, Arnesen T, Anderson D, Baldersheim C, Lanotte M, Varhaug J E, Lillehaug J R. (2005) Identification and characterization of the human ARD1-NATH protein acetyltransferase complex. Biochemical J 386(Pt 3):433-43.) or Naa20 ab (Nat5, abnova) respectively and protein A/G magnetic agarose beads (Millipore). A similar Nt-acetylation reaction was performed as previously described and the enzymatic activity was quenched with a final concentration of 1% TFA and analyzed by HPLC (Evjenth R, Van Damme P, Gevaert K, Arnesen T (2013) HPLC-based Quantification of in vitro N-terminal Acetylation. Methods Mol Biol 981:95-102.).
We then pursued Naa80 bisubstrate analogue inhibitors based on the results of the substrate screening and the sequences of the cellular substrates processed β- and γ-actin. We synthesized bisubstrate conjugates of Coenzyme A coupled to the tetrapeptides MDEL-NH2 (SEQ ID NO: 8), DDDI-NH2 (SEQ ID NO: 6), EEEI-NH2 (SEQ
ID NO: 7), and MLGT-NH2 (SEQ ID NO: 52) via an acetamide (Ac) linker.
The following additional Naa80 bisubstrate analogue inhibitors were produced and tested as described above: […]

Naa10 = biological target: T2, Naa10 (Homo sapiens, UniProt P41227); conditions: hNaa10, catalytic subunit of NatA; Foyn et al. 2013; cited from earlier work
T2 sequence (P41227 1-235): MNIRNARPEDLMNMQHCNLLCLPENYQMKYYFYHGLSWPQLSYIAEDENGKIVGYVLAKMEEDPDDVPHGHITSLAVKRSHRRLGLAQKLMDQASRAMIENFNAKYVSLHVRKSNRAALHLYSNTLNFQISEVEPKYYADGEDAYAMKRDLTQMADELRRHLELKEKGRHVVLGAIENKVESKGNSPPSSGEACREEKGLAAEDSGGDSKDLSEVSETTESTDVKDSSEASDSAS

[4] = biological target: T3, NatA complex (Naa15-Naa10) (human, UniProt P41227 1-235; Q9BXJ9 1-866); assay: cell-based or functional assay
T3 sequence (looked up) 1: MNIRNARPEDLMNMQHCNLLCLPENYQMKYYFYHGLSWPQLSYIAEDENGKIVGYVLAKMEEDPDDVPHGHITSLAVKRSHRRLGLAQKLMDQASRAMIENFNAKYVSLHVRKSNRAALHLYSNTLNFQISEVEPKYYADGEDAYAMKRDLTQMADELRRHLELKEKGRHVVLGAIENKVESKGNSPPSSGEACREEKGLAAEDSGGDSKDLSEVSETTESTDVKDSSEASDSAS
T3 sequence (looked up) 2: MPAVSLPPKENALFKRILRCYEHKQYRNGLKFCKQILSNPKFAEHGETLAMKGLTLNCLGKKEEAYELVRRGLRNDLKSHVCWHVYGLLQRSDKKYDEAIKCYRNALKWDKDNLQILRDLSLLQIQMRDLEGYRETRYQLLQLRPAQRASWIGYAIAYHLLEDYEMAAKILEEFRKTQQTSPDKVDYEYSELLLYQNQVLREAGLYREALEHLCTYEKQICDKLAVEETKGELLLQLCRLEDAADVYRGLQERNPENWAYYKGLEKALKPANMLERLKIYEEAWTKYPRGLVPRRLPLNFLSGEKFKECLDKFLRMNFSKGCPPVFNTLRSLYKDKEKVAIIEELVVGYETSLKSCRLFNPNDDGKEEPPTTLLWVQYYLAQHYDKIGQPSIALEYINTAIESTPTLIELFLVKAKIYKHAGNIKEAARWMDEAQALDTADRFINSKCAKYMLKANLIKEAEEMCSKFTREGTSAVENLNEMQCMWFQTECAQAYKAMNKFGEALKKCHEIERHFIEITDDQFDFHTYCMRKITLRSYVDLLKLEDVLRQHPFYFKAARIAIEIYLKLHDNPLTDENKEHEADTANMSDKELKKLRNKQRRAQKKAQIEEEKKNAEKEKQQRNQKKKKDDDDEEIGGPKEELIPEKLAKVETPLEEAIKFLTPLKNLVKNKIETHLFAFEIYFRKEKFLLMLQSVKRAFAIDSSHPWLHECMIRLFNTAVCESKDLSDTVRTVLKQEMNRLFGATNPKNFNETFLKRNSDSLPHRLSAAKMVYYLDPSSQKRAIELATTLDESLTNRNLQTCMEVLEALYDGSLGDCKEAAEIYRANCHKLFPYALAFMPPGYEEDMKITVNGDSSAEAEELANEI

[5] = biological target: T3, NatA complex (Naa15-Naa10); assay: comparison of Ki values from Nt-acetylation inhibition assays
Naa30 = Naa30 (UniProt Q147X3); assay: Ki calculated by Cheng-Prusoff from IC50 of Nt-acetylation inhibition assay
Naa40 = Naa40 (Homo sapiens, UniProt Q86UY6); assay: as above
Naa50 (human) = Naa50 (human) (UniProt Q9GZZ1); assay: as above
Naa60 = Naa60 (Homo sapiens, UniProt Q9H7X0); assay: as above
NatB = NatB (Homo sapiens, UniProt P61599); assay: as above
[6] = biological target: T3, NatA complex (Naa15-Naa10); assay: as above
Naa10 (monomeric) = biological target: T4, Naa10 (monomeric) (human, UniProt P41227 1-235, limits assumed); assay: as above
T4 construct: also called hNaa10; Ard1
T4 sequence (looked up): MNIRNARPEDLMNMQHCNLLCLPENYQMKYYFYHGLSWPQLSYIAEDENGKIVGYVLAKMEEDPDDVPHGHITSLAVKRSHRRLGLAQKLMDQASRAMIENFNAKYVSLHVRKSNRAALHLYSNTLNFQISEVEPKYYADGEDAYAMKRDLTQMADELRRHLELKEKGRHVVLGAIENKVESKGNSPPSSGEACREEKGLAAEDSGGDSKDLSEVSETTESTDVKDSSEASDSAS

Naa30, sequence (Q147X3 whole entry): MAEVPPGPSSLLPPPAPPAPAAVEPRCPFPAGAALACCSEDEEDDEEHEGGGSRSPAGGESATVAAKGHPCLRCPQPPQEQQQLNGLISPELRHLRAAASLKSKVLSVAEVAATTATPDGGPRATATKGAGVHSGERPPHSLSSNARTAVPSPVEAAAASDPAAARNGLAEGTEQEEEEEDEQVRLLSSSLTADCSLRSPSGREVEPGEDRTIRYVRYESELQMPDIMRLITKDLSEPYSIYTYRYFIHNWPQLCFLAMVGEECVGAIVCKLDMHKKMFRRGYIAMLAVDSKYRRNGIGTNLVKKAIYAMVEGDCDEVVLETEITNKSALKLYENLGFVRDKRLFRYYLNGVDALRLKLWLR
NatB, sequence (P61599 whole entry, the tested form may be a part): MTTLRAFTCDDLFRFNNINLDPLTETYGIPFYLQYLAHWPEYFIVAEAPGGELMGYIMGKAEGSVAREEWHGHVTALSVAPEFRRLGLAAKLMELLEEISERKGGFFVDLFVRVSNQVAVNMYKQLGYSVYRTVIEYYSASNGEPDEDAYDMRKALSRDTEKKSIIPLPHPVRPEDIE

Product formation (Naa80 [1]): 119 (±5.61) μM
higher product formation compared to second best substrate MDDD24 (Naa80 [2]): 5 fold
Molecule: MDEL24: 24-mer substrate peptide: N-terminal MDELFPL (SEQ ID NO: 45) plus constant RWGRPVGRRRRPVRVYP (MDELFPLRWGRPVGRRRRPVRVYP)

Molecule: CC[C@H](C)[C@H](NC(=O)[C@H](CCC(=O)O)NC(=O)[C@H](CCC(=O)O)NC(=O)[C@H](CCC(=O)O)NC(=O)CSCCNC(=O)CCNC(=O)C(O)C(C)(C)COP(=O)(O)OP(=O)(O)OCC1OC(n2cnc3c(N)ncnc32)C(O)C1OP(=O)(O)O)C(N)=O (stereo partly shown) [CoA-Ac-EEEI-NH2]
IC50 (Naa80 [3]): 1160 nM
IC50 (Naa10): 10.1 µM

IC50 (µM), Nt-acetylation inhibition [4]: 1.46 µM
fold more potent towards NatA than all the other NATs tested [5]: > 100 fold
Ki (Naa30): 132 µM
Ki (Naa40): 41.9 µM
Ki (Naa50 (human)): 17.7 µM
Ki (Naa60): 3.1 µM
Ki (NatB): 41.6 µM
Ki [6]: 143 nM
Ki (Naa10 (monomeric)): 98.9 µM
Molecule: CoA-Ac-SSNleP-NH2 (peptide)
